Measured values reported in patent publication US20140141019A1 (INSERM INSTITUT NATIONALDE LA SENTE ET DE LA RECHERCHE …, published 2014).
Ends that are not written are not given here.

T1: human HER4-Fc (recombinant human extracellular domain ErbB4/HER4 Fc chimera, R&D Systems) (human, UniProt Q15303 26-651)
T1 construct: extracellular domain; Bought protein; Fc part of the bought chimera not given
T1 sequence (looked up): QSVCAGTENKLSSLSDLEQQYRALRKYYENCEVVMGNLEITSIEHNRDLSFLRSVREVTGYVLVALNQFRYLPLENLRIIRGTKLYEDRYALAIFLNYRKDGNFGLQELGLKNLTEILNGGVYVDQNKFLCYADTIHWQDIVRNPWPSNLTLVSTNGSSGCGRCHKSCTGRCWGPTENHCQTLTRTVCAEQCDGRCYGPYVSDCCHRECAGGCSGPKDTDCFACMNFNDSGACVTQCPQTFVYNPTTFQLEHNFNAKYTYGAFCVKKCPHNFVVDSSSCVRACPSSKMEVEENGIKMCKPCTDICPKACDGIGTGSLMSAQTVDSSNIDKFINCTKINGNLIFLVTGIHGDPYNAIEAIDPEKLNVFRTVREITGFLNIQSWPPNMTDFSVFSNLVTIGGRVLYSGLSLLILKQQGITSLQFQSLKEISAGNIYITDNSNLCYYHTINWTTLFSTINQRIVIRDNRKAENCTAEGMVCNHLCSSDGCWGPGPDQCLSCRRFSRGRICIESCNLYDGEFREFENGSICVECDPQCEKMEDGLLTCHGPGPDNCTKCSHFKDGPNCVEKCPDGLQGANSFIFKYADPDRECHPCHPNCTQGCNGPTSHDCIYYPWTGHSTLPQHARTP

T2: HER3 peptide 343-357 DFLITGLNGDPWHKI (human, also: cellulose-bound)
T2 construct: SPOT peptide
T2 peptide: Ac-DFLITGLNGDPWHKI


Assays:
[1] = biological target: T3, EGFR on transfected NIH 3T3 cells (human, UniProt P00533 25-1210); test: flow cytometry, EGFR-transfected NIH-3T3 cells
T3 construct: whole, on cells
Experimental: (§1) After three washes in PBS-BSA 0.1%, cells were incubated with the fluorescein-conjugated anti-human IgG-Fragment Fc specific (Sigma) at 4° C. in the dark for 45 min. Cells were then washed three times and suspended in PBS for analysis using an EPICS flow cytometer (Beckman-Coulter, Fullerton, Calif.).

[2] = biological target: T4, HER2 on transfected NIH 3T3 cells (human, UniProt P04626 23-1255); test: flow cytometry, HER2-transfected NIH-3T3 cells
T4 construct: whole, on cells
Experimental: as §1

[3] = biological target: T5, HER2/HER3 complex on transfected NIH 3T3 cells (human, UniProt P04626 23-1255; P21860 20-1342); test: flow cytometry, HER2/HER3-transfected NIH-3T3 cells
T5 construct: whole, on cells; NIH 3T3 cells transfected with both HER2 and HER3; also called HER2-HER3 heterodimer
Experimental: as §1

[4] = biological target: T6, HER3 receptor on cells (HER3-transfected NIH 3T3 fibroblasts; SKBR3 cells; BxPC3 cells) (human, UniProt P21860 20-1342); test: flow cytometry, HER3-transfected NIH-3T3 cells
T6 construct: whole, on cells; also called ErbB3
Experimental: as §1

[5] = biological target: T7, EGFR/HER4 on transfected NIH 3T3 cells (human, UniProt P00533 25-1210; Q15303 26-1308); test: flow cytometry, EGFR/HER4-transfected NIH-3T3 cells
T7 construct: whole, on cells; NIH 3T3 cells transfected with both EGFR and HER4
Experimental: as §1

[6] = biological target: T8, mouse HER3-Fc (recombinant mouse extracellular domain ErbB3/HER3 Fc chimera, R&D Systems) (mouse, UniProt Q61526 20-641); test: ELISA, coated mouse HER3-Fc 250 ng/ml
T8 construct: extracellular domain; Bought protein; also called murine HER3; Fc part of the bought chimera not given

[7] = biological target: T1, human HER4-Fc (recombinant human …); test: ELISA, coated HER4-Fc 50 ng
From the text: The bound IgG were detected by using HRP-F(ab′) 2 goat anti human IgG F(ab′)2 specific (Interchim).

[8] = biological target: T3, EGFR on transfected NIH 3T3 cells; test: flow cytometry, transfected NIH 3T3 cells
Experimental: as §1

[9] = biological target: T7, EGFR/HER4 on transfected NIH 3T3 cells; test: flow cytometry, transfected NIH 3T3 cells
Experimental: as §1

[10] = biological target: T4, HER2 on transfected NIH 3T3 cells; test: flow cytometry, transfected NIH 3T3 cells
Experimental: as §1

[11] = biological target: T2, HER3 peptide 343-357 DFLITGLNGDPWHKI; test: SPOT peptide array, antibody at 1 µg/ml
[12] = biological target: T1, human HER4-Fc (recombinant human …); test: ELISA, coated HER4-Fc 250 ng, anti-V5-HRP
Experimental: The purified human Fabs at various concentrations were incubated for 2 hours at 37° C. in coated wells at 250 ng HER3-Fc (or HER4-Fc). The bound Fabs were detected by using HRP-labeled anti-V5 antibody (Invitrogen). Revelation was done at 450 nm in the presence of TMB (Sigma). The Fabs were tested simultaneously for binding on HER3-Fc, HER4-Fc and on Bovine serum Albumin as control.

T8 sequence (Q61526 20-641, change not shown): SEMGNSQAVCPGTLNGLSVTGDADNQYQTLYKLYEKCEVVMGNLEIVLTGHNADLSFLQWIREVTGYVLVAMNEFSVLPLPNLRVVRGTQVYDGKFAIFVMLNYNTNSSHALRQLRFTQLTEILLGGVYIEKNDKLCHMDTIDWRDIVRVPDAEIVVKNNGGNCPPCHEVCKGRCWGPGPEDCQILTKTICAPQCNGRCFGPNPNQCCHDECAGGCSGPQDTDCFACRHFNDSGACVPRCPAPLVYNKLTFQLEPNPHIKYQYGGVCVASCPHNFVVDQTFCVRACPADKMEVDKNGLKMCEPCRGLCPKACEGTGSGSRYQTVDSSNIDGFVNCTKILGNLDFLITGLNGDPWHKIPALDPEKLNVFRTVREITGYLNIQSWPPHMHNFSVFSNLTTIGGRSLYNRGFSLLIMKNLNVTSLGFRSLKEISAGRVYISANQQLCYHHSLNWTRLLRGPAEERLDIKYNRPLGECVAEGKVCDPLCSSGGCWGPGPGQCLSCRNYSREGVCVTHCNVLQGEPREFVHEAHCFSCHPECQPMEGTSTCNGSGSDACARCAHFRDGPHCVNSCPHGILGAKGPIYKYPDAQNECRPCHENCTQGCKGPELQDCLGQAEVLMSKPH

Binder	geometric mean [1]	geometric mean [2]	geometric mean [3]	geometric mean [4]	geometric mean [5]	binding result [6]	binding result [7]	binding result [8]	binding result [9]	binding result [10]	binding result [11]	binding result [12]
U1-59 (Amgen/U3 Pharma-Daiichi Sankyo) (antibody, V domains shown) VH: QVQLQQWGAGLLKPSETLSLTCAVYGGSFSGYYWSWIRQPPGKGLEWIGEINHSGSTNYNPSLKSRVTISVETSKNQFSLKLSSVTAADTAVYYCARDKWTWYFDLWGRGTLVTVSS VL: not shown	0.25	0.42	15.5	9.32	0.59							
mAb H3A-32 (purified human IgG) (antibody, V domains shown, expressed as human IgG1 in transiently transfected HEK 293 cells, protein A purified) VH: EVQLVESGGGLVQPGGSLRLSCAASGFTFDDYAMHWVRQAPGKGLEWVSGISWNSGSIGYADSVKGRFTISRDNAKNSLYLQMNSLRAEDTAVYYCAREGQWPNYGMDVWGQGTTVTVSS VL: not shown	0.26	0.44	68.8	10.5	0.53	binds	no binding (tested: 0.5 µg/ml)	no binding	no binding	no binding		
Fab H3A-32 (Fab, V domains shown, Fab made in E. coli periplasm with a V5 tag and a C-terminal 6xHis tag; also called H3A-32 (Fab format)) VH: EVQLVESGGGLVQPGGSLRLSCAASGFTFDDYAMHWVRQAPGKGLEWVSGISWNSGSIGYADSVKGRFTISRDNAKNSLYLQMNSLRAEDTAVYYCAREGQWPNYGMDVWGQGTTVTVSS VL: not shown												no binding
mAb H3A-76 (purified human IgG) (antibody, V domains shown, expressed as human IgG1 in HEK 293 cells) VH: EVQLVESGGGLVQPGRSLRLSCAASGFTFDDYAMHWVRQAPGKGLEWVSGISWNSGSIGYADSVKGRFTISRDNAKDSLYLQMNSLRAEDTAVYYCAREGQWPNYGMDVWGQGTTVTVSS VL: QSVLTQPPSASGTPGQRVTISCSGSSSNIGSNSLNWYQQLPGTAPKLLIYSNNQRPPGVPDRFSGSRSGSSASLAISGLQSGDEGDYYCAAWDDSLKGYVFGTGTQLTVL	0.24	0.52	66.6	11.5	0.53	binds	no binding (tested: 0.5 µg/ml)	no binding	no binding	no binding		
Ab#6 (Merrimack Pharmaceuticals) (antibody, V domains shown) VH: EVQLLESGGGLVQPGGSLRLSCAASGFTFSHYVMAWVRQAPGKGLEWVSSISSSGGWTLYADSVKGRFTISRDNSKNTLYLQMNSLRAEDTAVYYCTRGLKMATIFDYWGQGTLVTVSS VL: QSALTQPASVSGSPGQSITISCTGTSSDVGSYNVVSWYQQHPGKAPKLIIYEVSQRPSGVSNRFSGSKSGNTASLTISGLQTEDEADYYCCSYAGSSIFVIFGGGTKVTVL	0.21	0.35	14.1	7.77	0.51							

Results, then the binder that gave them:

geometric mean [1]	geometric mean [2]	geometric mean [3]	geometric mean [4]	geometric mean [5]	binding result [6]	binding result [7]	binding result [8]	binding result [9]	binding result [10]	binding result [11]	binding result [12]	Binder
0.33	0.56	70.4	12.3	0.67	binds	no binding (tested: 0.5 µg/ml)	no binding	no binding	no binding	binds		mAb H4B-121 (purified human IgG) (antibody, V domains shown, expressed as human IgG1 in HEK 293 cells) VH: EVQLVESGGGLVQPGRSLRLSCAASGFTFDDYAMHWVRQAPGKGLEWVSGISWNSGSIGYADSVKGRFTISRDNAKNSLYLQMNSLRAEDTAVYYCAREGQWPNYGMDVWGQGTTVTVSS VL: QSVLTQPPSVSAAPGQKVTISCPGSSSNIGNNYVSWYQQLPGTAPKLLIYDNNERPSGIPDRFSGSTSGTSATLDITDLQAEDEATYYCGAWDNTLGVYVLGTGTQLTVL
											no binding	Fab H4B-121 (Fab, V domains shown, Fab made in E. coli periplasm with a V5 tag and a C-terminal 6xHis tag) VH: EVQLVESGGGLVQPGRSLRLSCAASGFTFDDYAMHWVRQAPGKGLEWVSGISWNSGSIGYADSVKGRFTISRDNAKNSLYLQMNSLRAEDTAVYYCAREGQWPNYGMDVWGQGTTVTVSS VL: QSVLTQPPSVSAAPGQKVTISCPGSSSNIGNNYVSWYQQLPGTAPKLLIYDNNERPSGIPDRFSGSTSGTSATLDITDLQAEDEATYYCGAWDNTLGVYVLGTGTQLTVL
											no binding	Fab H4B-05 (Fab, V domains shown, Fab made in E. coli periplasm with a V5 tag and a C-terminal 6xHis tag; also called H4B-05 (Fab format)) VH: EVQLVESGGGLVQPGRSLRLSCAASGFTFDDYAMHWVRQAPGKGLEWVSGISWNSGSIGYADSVKGRFTISRDNAKNSLYLQMNSLRAEDTAVYYCAREGQWPNYGMDVWGQGTTVTVSS VL: not shown
											no binding	Fab H3A-76 (Fab, V domains shown, Fab made in E. coli periplasm with a V5 tag and a C-terminal 6xHis tag; also called H3A-76 (Fab format)) VH: EVQLVESGGGLVQPGRSLRLSCAASGFTFDDYAMHWVRQAPGKGLEWVSGISWNSGSIGYADSVKGRFTISRDNAKDSLYLQMNSLRAEDTAVYYCAREGQWPNYGMDVWGQGTTVTVSS VL: QSVLTQPPSASGTPGQRVTISCSGSSSNIGSNSLNWYQQLPGTAPKLLIYSNNQRPPGVPDRFSGSRSGSSASLAISGLQSGDEGDYYCAAWDDSLKGYVFGTGTQLTVL
0.26	0.5	68.5	10.6	0.53	binds	no binding (tested: 0.5 µg/ml)	no binding	no binding	no binding			mAb H3A-81 (purified human IgG) (antibody, V domains shown, expressed as human IgG1 in HEK 293 cells) VH: EVQLVESGGGLVQPGGSLRLSCAASGFTFDDYAMHWVRQAPGKGLEWVSGISWNSGSIGYADSVKGRFTISRDNAKNSLYLQMNSLRAEDTAVYYCAREGQWPNYGMDVWGQGTTVTVSS VL: not shown
0.28	0.41	13.3	7.85	0.52	binds	no binding (tested: 0.5 µg/ml)	no binding	no binding	no binding			mAb H4B-05 (purified human IgG) (antibody, V domains shown, expressed as human IgG1 in HEK 293 cells) VH: EVQLVESGGGLVQPGRSLRLSCAASGFTFDDYAMHWVRQAPGKGLEWVSGISWNSGSIGYADSVKGRFTISRDNAKNSLYLQMNSLRAEDTAVYYCAREGQWPNYGMDVWGQGTTVTVSS VL: not shown
											no binding	Fab H3A-81 (Fab, V domains shown, Fab made in E. coli periplasm with a V5 tag and a C-terminal 6xHis tag; also called H3A-81 (Fab format)) VH: EVQLVESGGGLVQPGGSLRLSCAASGFTFDDYAMHWVRQAPGKGLEWVSGISWNSGSIGYADSVKGRFTISRDNAKNSLYLQMNSLRAEDTAVYYCAREGQWPNYGMDVWGQGTTVTVSS VL: not shown
